Values of other authors, collected in PMC4549621.

Biological target: amyloid-beta monomer Abeta (Homo sapiens) (UniProt P05067)

Kd: 0.6 nM
Substance: gantenerumab
